# Assay results as given in paper PMC5700101.
# B1: Luc-KD (KD–IDL of Polo, amino acids 1–349, N-terminally fused to RLucII), KD^WT [Drosophila] / PBD–GFP (PBD of Polo, amino acids 350–576, C-terminally fused to GFP10) [Drosophila] (parent)
# chain 1: MAAKPEDKSTDIPDRLVDINQRKTYKRMRFFGKGGFAKCYEIIDVETDDVFAGKIVSKKLMIKHNQKEKTAQEITIHRSLNHPNIVKFHNYFEDSQNIYIVLELCKKRSMMELHKRRKSITEFECRYYIYQIIQGVKYLHDNRIIHRDLKLGNLFLNDLLHVKIGDFGLATRIEYEGERKKTLCGTPNYIAPEILTKKGHSFEVDIWSIGCVMYTLLVGQPPFETKTLKDTYSKIKKCEYRVPSYLRKPAADMVIAMLQPNPESRPAIGQLLNFEFLKGSKVPMFLPSSCLTMAPRIGSNDTIEDSMHRKPLMEMNGIRPDDTRLESTFLKANLHDAITASAQVCRHSE
# chain 2: DYRSDIESLYQQLTNLINGKPRILQGNLGDENTDPAAQPLFWISKWVDYSDKYGFGYQLCDEGIGVMFNDTTKLILLPNQINVHFIDKDGKETYMTTTDYCKSLDKKMKLLSYFKRYMIEHLVKAGANNVNIESDQISRMPHLHSWFRTTCAVVMHLTNGSVQLNFSDHMKLILCPRMSAITYMDQEKNFRTYRFSTIVENGVSKDLYQKIRYAQEKLRKMLEKMFT
# Variants of: B1
# Test: BRET
# Conditions: with PBD–GFP (PBD of Polo, amino acids 350–576, C-terminally fused to GFP10) [Drosophila]; live HEK293T cells; fixed amount of Luc-KD vector, increasing PBD–GFP vector; Map205 fragment co-transfected; p-value 0.4037; parent: 0.197
row,screen value [GFP/Luc],Variant
1,0.148,chain 1 T182A

# Same assay, conditions: with PBD–GFP (PBD of Polo, amino acids 350–576, C-terminally fused to GFP10) [Drosophila]; live HEK293T cells; fixed amount of Luc-KD vector, increasing PBD–GFP vector; Map205 fragment co-transfected; p-value 0.0374; parent: 0.197
row,screen value [GFP/Luc],Variant
1,0.412,chain 1 T182D
